Results as given in patent US10781452B2, “FLT3 receptor antagonists for the treatment or the prevention of pain disorders” (INSTITUT NATIONAL DE LA SANTE ET DE LA RECHERCHE MEDICALE …, priority 2010, dated 2020).

B1: FL: cytokine which is a natural ligand of the FLT3 receptor (protein, UniProt P49771 27-235, looked up)
Fms-related tyrosine kinase 3 …: TQDCSFQHSPISSDFAVKIRELSDYLLQDYPVTVASNLQDEELCGGLWRLVLAQRWMERLKTVAGSKMQGLLERVNTEIHFVTKCAFQPPPSCLRFVQTNISRLLQETSEQLVALKPWITRQNFSRCLELQCQPDSSTLPPPWSPRPLEATAPTAPQPPLLLLLLLPVGLLLLAAAWCLHWQRTRRRTPRPGEQVPPVPSPQDLLLVEH

Key:
mice hindpaws [1] = assay: Mechanical withdrawal (von Frey hair filaments) after hindpaw injection of FL or NGF; format: in vivo
Protocol: (§1) Animals: Adult Swiss mice (8-10 week old) (CERJ, Le Genest St Isle, France) were used according to the guidelines of the International Association for the Study of Pain. Mice were housed in cages with a 12/12 hr light/dark cycle and fed food and water ad libitum.
(§2) Behavioral experiments: Behavioral responsiveness of the mice was tested following one week of habituation to the testing environment and the observer.
(§3) Mechanical withdrawal thresholds: The sensitivity to punctuate mechanical stimuli was assessed using the dynamic plantar aesthesiometer (Bioseb, France). Each mouse was placed in a Plexiglass chamber. Sixty minutes later, a mechanical stimulus (a small-diameter blunt metallic filament) was applied to the plantar surface with an increasing force and the paw withdrawal latencies were measured. For each point, mice were tested three times and the responses for each paw were averaged.
We next tested the role of FL in modulating noxious mechanical sensitivity in vivo. […] For comparison, NGF (100ng/10μ1) induced a foot withdrawal response decrease of 30% at 12 H (P<0.001) (FIG. 1B).

mice hindpaws [2] = assay: Thermo-nociceptive testing (radiant heat paw withdrawal) after hindpaw injection of FL or NGF; format: in vivo; details: for paw withdrawal latency drop (radiant heat stimulus), thermal hyperalgesia: 12 H after hindpaw injection of 100 ng/10 μl, vs vehicle-injected hindpaws
Protocol: as §1, §2
Thermo-nociceptive testing: Nociceptive threshold to acute thermal stimulation was measured using the paw retrieval test (Bioseb, France). Focused light from 12.5 W projection bulb was applied to the middle of the plantar surface of the hind paw (3 mm diameter). The projection bulb was turned off as soon as the mouse removed its paw, and a digital timer connected in series measured the paw withdrawal latency to an accuracy of 0.1 s. We used a cut-off latency of 15 s to avoid the possibility of tissue damage. For each point, mice were tested three times and the responses for each paw were averaged.
FL produces thermal and mechanical hyperalgesia in vivo: To investigate the potential role(s) of FL in modulating noxious heat sensitivity in vivo, we first injected FL (100 ng/10 μl) into mice hindpaws, and latency to ipsilateral paw withdrawal from a radiant heat stimulus was measured. […] At 12 H after injection, FL induced a significant thermal hyperalgesia (latency drop around 30%) compared to control mice hindpaws injected with vehicle (p<0.001) (FIG. 1A). For comparison, NGF (100 ng/10 μ) induced a significant latency drop of 25% at 12 H (FIG. 1A).

TRPV1 = target: T1, TRPV1 (Mus musculus, UniProt Q704Y3); assay: FL-induced mechanical hyperalgesia with intraplantar TRPV1 inhibitor; format: in vivo, mice; details: intraplantar 10 μl at 30 μg/ml, one hour before FL injection; 12 h
T1 construct: from tissue; host or cells: living mice, hindpaw
Protocol: as §3
To investigate the potential role(s) of FL in modulating noxious sensitivity through the activation of TRPV1 receptor in vivo, we tested the effect of the TRPV1 inhibitor sb-366791 on the FL-induced mechanical hyperalgesia.

[3] = tested on: TRPV1 positive sensory neurons; assay: FL potentiation of capsaicin [Ca2+]i response (Fura-2 imaging) in DRG neurons; format: cell-based, mice
Protocol: DRG neurons primary culture: Primary neuronal cultures were established from lumbar (L4 to L6) dorsal root ganglia (DRG) of adult mice as previously described (Boudes et al, 2009). Ganglia were treated twice with collagenase A (1 mg/ml, Roche Diagnostic, France) for 45 minutes (37° C.) and then with trypsin-EDTA (0.25%, Sigma, St Quentin Fallavier, France) for 30 minutes. They were mechanically dissociated by passing 8 to 10 times through the tip of a fire-polished Pasteur pipette in neurobasal (Life Technologies, Cergy Pontoise, France) culture medium supplemented with 10% foetal bovine serum and DNase (50 U/ml, Sigma, St Quentin Fallavier, France). Isolated cells were collected by centrifugation and suspended in neurobasal culture medium supplemented with 2% B27 (Life Technologies), 2 mM glutamine, penicillin/streptomycin (20 U/ml, 0.2 mg/ml). Dissociated neurons were plated on poly-D,L-ornithine (0.5 mg/ml)-laminin (5 μg/ml)-coated glass coverslips at a density of 2500 neurons per well and were incubated in an incubator with a humidified 95% air/5% CO2 atmosphere. Two hours after plating, the culture medium was carefully removed and replaced to eliminate dead cells and tissue debris. The cells were maintained in culture at 37° C. until experiments were performed. […]
Cells were imaged with a inverted microscope equipped with a NEOFLUAR 25×0.8 objective lens (Axiovert 200, Zeiss, Le Pecq, France) and a CCD camera (Cool SNAP ES, Roper Scientific, France). […] A Fura filter cube with 400 long pass dichroic and D510/40m emission band pass was used to collect fluorescence emissions separately for each wavelength. Images were acquired and analyzed with Metafluor software (Molecular Devices). Changes in intracellular calcium concentrations ([Ca^2+]i ) were monitored as changes of the ratio of the fura-2-fluorescence intensity recorded at 340 nm and 380 nm excitation wavelengths (ΔF340/380). […]
Each neuron was stimulated three times by capsaicin at 4-5 min interval. […] Response areas were calculated as a measure of total Ca^2+ influx. […]

[4] = 12H after hindpaw injection of 100 ng/10 μl
[5] = all capsaicin responders, potentiated and unaffected

T1 sequence (Q704Y3 whole entry): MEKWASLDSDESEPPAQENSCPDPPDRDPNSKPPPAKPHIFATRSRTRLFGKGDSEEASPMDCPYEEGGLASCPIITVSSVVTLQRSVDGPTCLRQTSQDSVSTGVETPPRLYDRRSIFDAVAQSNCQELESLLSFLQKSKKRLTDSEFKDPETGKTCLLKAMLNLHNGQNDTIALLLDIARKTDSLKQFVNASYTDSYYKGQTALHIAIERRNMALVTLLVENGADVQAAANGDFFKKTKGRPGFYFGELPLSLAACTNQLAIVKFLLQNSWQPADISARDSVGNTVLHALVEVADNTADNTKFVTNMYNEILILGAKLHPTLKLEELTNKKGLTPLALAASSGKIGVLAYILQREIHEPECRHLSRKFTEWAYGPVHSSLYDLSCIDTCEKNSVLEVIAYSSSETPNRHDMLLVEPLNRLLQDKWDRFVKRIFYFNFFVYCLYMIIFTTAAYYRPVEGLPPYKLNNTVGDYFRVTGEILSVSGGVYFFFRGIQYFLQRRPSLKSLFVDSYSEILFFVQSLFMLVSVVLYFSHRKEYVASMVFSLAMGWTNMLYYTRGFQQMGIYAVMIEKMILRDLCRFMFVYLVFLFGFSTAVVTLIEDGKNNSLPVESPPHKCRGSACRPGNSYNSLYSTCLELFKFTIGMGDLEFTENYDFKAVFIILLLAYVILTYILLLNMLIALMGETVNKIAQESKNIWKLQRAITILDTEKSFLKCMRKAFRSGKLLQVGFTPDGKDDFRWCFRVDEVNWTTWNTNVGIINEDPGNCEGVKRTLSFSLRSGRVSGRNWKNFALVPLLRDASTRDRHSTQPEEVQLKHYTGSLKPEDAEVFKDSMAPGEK

Row | Molecule | foot withdrawal response decrease (mice hindpaws [1]; [4]) [%] | paw withdrawal latency drop (radiant heat stimulus), thermal hyperalgesia (mice hindpaws [2]) | foot withdrawal response to von Frey hair filaments after FL injection, vs control mice (TRPV1) | cells that respond to capsaicin showing potentiation of the capsaicin response ([3]; FL at 10 and 100 ng/ml, adult DRG neurons) [%] | mean fold increase in TRPV1 response, ΔFarea [3, 5] | mean fold increase in TRPV1 response, ΔFpeak [3, 5] [%] | foot withdrawal response to von Frey hair filaments reduced to, compared to control (mice hindpaws [1]; [4]) [%] | onset of mechanical hyperalgesia (mice hindpaws [1]; hindpaw injection 100 ng/10 μl) | return of mechanical hyperalgesia to control values (mice hindpaws [1]; hindpaw injection 100 ng/10 μl) [days] | onset of heat hyperalgesia (mice hindpaws [2]; hindpaw injection 100 ng/10 μl) | return of heat hyperalgesia to control values (mice hindpaws [2]; hindpaw injection 100 ng/10 μl) [days]
1 | NGF: nerve growth factor, used as positive control | 30 | 25% | – | – | – | – | – | – | – | – | –
2 | COc1cccc(NC(=O)/C=C/c2ccc(Cl)cc2)c1 [sb-366791] | – | – | did not show any change in the foot withdrawal response | – | – | – | – | – | – | – | –
3 | B1 | – | around 30% | – | 56 | ≈ 512% | 212 | 50 | within one/two hours | 6 | within one/two hours | 6
